Experimental data published in article PMC6204840.

How the values were obtained:
[1] = biological target: Fcγ receptor IIIa (V176 or F176, not told which) (UniProt P08637); test: ELISA
[2] = biological target: motavizumab IgG1 with Fc variant DF197 (human); test: SPR
[3] = biological target: motavizumab IgG1 with Fc variant DF215 (human); test: SPR
[4] = biological target: motavizumab IgG1 with Fc variant DF213 (human); test: SPR
[5] = biological target: motavizumab IgG1 with Fc variant DF183 (human); test: SPR
[6] = biological target: motavizumab IgG1 with wild type Fc (human); test: SPR
[7] = biological target: Fcγ receptor IIIa (V176 or F176, not told which) (UniProt P08637)
[8] = biological target: soluble human neonatal Fc receptor (FcRn alpha chain extracellular domain + beta2-microglobulin) (UniProt P55899+P61769); test: SPR; conditions: pH 6.0, PBS (concentration not stated), adjusted to pH 6.0 or pH 7.4
[9] = biological target: recombinant cynomolgus monkey FcRn (cynomolgus monkey) (UniProt Q8SPV9); test: BLI
Chain of UniProt Q8SPV9 (Q8SPV9 24-297, chain 1 of 2): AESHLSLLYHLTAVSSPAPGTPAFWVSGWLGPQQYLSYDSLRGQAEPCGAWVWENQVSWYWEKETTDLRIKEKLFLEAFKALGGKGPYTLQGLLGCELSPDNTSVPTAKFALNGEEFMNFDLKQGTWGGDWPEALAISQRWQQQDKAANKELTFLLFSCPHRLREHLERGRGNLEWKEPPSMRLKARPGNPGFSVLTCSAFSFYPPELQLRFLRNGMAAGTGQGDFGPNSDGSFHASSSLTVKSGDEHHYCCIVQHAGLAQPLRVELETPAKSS
Chain of UniProt Q8SPV9 (Q8SPW0 21-119, chain 2 of 2, further chain): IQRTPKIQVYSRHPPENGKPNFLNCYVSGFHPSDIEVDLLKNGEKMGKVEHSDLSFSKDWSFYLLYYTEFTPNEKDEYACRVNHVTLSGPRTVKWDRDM

Chain of UniProt P08637 (P08637 17-208): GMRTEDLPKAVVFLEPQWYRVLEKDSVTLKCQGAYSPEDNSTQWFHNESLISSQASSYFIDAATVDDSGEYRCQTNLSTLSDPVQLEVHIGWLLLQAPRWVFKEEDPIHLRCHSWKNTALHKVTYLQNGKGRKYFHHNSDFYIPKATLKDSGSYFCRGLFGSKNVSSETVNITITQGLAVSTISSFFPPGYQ

| Substance | EC50 [1] [nM] | ADCC EC50 (ADCC Reporter Bioassay, rituximab Fab, WIL2-S cells) [7] [ng/mL] | ka [8] [M⁻¹ s⁻¹] | kd [8] [s⁻¹] | also measured |
| --- | --- | --- | --- | --- | --- |
| rituximab IgG1 with Fc variant LS (antibody) | 192 |  |  |  |  |
| recombinant human FcRn heterodimer (α-FcRn extracellular domain with β2M) (from UniProt P55899 24-297; P61769 21-119) (complex) |  |  |  |  | Kd [2]: 21 nM; Kd [3]: 19 nM; Kd [4]: 24 nM; Kd [5]: 21 nM; Kd [6]: 825 nM |
| rituximab IgG1 with Fc variant DF197 (antibody) | 97.4 | 8.3 |  |  |  |
| rituximab IgG1 with Fc variant DF183 (antibody) | 87.2 | 3.92 |  |  |  |
| motavizumab IgG1 DF183 T256D;Q311V;A378V |  |  | 1.93e+06 | 0.0402 |  |
| rituximab IgG1 with Fc variant DF213 (antibody) | 139 | 4.01 |  |  |  |
| motavizumab IgG1 DF228 T256D;H286D (as printed; probably N286D);T307R;Q311V;A378V |  |  | 1.39e+06 | 0.0142 |  |
| motavizumab with wild type human IgG1 Fc (antibody) |  |  |  |  | Kd [9]: 13.7 nM |
| rituximab IgG1 with wild type Fc (antibody) | 538 |  |  |  |  |
| rituximab IgG1 with Fc variant DF215 (antibody) | 142 | 2.73 |  |  |  |
| motavizumab IgG1 DF215 T307Q;Q311V;A378V |  |  | 1.37e+06 | 0.027 |  |

The next lines start with results.

| EC50 [1] [nM] | ADCC EC50 (ADCC Reporter Bioassay, rituximab Fab, WIL2-S cells) [7] [ng/mL] | ka [8] [M⁻¹ s⁻¹] | kd [8] [s⁻¹] | Substance | also measured |
| --- | --- | --- | --- | --- | --- |
|  |  | 800000 | 0.0192 | motavizumab IgG1 DF213 H285D;T307Q;A378V |  |
| 1010 | 15 |  |  | rituximab IgG1 with Fc variant YTE (antibody) |  |
| 154 | 2.66 |  |  | rituximab IgG1 with Fc variant DF228 (antibody) |  |
|  |  | 1.59e+06 | 0.0328 | motavizumab IgG1 DF197 H285N;T307Q;N315D |  |
